Data: publication PMC10421740, “A universal deep-learning model for zinc finger design enables transcription factor reprogramming”

How the values were obtained:
[1] = biological target: ZIM3 reprogrammed with array DPH1TSSR (synthetic construct, UniProt Q96PE6 1-166); assay: Zn; HEK293T, RT-qPCR 3 days after transfection
[2] = biological target: ZIM3 reprogrammed with array Rab1a T2R8 (synthetic construct, UniProt Q96PE6 1-166); assay: Zn; HEK293T, RT-qPCR 3 days after transfection
[3] = biological target: ZIM3 reprogrammed with array DPH1_15 F1-8 Q (synthetic construct, UniProt Q96PE6 1-166); assay: Zn; HEK293T, RT-qPCR 3 days after transfection
ZIM3 reprogrammed with array DPH1_15 F1-8 Q, sequence (Q96PE6 other isoform, or with tags, fused parts or gaps): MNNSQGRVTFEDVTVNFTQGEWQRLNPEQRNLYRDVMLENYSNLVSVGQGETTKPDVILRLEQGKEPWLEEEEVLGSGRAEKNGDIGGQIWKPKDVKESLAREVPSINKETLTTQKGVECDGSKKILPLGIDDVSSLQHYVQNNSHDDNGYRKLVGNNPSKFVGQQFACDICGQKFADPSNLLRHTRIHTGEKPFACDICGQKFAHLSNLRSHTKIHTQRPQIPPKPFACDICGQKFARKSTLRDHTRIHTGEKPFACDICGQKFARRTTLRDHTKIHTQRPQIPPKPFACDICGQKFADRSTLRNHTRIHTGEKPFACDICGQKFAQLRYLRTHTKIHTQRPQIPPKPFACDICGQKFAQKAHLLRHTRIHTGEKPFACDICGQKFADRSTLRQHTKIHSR

[4] = biological target: ZIM3 reprogrammed with array DPH1_15 (synthetic construct, UniProt Q96PE6 1-166); assay: Zn; HEK293T, RT-qPCR 3 days after transfection
ZIM3 reprogrammed with array DPH1_15, sequence (Q96PE6 other isoform, or with tags, fused parts or gaps): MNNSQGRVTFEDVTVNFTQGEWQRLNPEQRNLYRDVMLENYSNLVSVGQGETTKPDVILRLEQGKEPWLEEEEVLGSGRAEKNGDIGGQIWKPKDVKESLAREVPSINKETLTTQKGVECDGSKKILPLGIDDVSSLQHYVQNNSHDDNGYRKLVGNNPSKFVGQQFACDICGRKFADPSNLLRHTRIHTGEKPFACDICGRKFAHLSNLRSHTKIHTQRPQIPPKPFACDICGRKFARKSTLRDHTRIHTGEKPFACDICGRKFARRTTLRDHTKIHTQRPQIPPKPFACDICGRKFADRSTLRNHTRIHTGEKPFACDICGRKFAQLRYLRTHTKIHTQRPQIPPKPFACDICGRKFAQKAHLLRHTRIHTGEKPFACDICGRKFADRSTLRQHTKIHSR

[5] = biological target: ZIM3 reprogrammed with array DPH1_15 F1-6 (synthetic construct, UniProt Q96PE6 1-166); assay: Zn; HEK293T, RT-qPCR 3 days after transfection
ZIM3 reprogrammed with array DPH1_15 F1-6, sequence (Q96PE6 other isoform, or with tags, fused parts or gaps): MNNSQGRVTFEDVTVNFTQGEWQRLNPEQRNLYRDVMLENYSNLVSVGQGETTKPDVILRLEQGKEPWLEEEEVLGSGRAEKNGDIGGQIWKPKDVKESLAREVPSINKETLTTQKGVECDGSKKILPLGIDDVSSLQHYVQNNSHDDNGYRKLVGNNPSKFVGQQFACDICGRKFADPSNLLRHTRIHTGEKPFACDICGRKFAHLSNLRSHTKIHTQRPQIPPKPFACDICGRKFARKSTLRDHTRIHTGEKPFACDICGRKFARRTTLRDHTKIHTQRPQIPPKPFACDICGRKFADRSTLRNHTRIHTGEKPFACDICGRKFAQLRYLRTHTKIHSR

[6] = biological target: ZIM3 reprogrammed with array DPH1_15 F3-8 (synthetic construct, UniProt Q96PE6 1-166); assay: Zn; HEK293T, RT-qPCR 3 days after transfection
ZIM3 reprogrammed with array DPH1_15 F3-8, sequence (Q96PE6 other isoform, or with tags, fused parts or gaps): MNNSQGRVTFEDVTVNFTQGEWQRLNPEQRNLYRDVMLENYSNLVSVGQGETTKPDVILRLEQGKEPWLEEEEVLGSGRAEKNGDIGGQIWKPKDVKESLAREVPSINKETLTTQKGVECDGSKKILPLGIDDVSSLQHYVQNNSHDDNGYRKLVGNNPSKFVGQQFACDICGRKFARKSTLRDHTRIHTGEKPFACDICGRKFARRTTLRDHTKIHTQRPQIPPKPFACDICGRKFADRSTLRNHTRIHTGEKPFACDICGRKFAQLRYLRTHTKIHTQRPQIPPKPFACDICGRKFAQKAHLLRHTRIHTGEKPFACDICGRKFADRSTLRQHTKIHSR

[7] = biological target: ZIM3 reprogrammed with array UBE4A T1R8 (synthetic construct, UniProt Q96PE6 1-166); assay: Zn; HEK293T, RT-qPCR 3 days after transfection
ZIM3 reprogrammed with array UBE4A T1R8, sequence (Q96PE6 other isoform, or with tags, fused parts or gaps): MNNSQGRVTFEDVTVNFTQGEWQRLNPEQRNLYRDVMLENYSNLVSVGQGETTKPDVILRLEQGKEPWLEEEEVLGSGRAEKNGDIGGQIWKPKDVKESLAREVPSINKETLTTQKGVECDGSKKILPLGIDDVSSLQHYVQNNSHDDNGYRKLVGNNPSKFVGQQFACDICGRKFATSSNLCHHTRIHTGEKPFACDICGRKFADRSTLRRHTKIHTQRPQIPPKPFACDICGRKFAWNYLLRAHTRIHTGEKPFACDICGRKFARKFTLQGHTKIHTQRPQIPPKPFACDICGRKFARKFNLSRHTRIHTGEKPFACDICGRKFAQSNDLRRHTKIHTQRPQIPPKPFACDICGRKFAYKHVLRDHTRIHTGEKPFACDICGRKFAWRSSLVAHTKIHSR

[8] = biological target: ZFN pair 18BC_selected + 18ED_selected (synthetic construct, UniProt P14870;P14870 384-579;384-579); assay: Zn; U2OS eGFP disruption, 3 days after nucleofection; conditions: tags: N-terminal 3xFLAG and SV40 NLS (kept in the assay, left out here); copies: 1;1
[9] = biological target: ZFN pair 18BC_designed + 18ED_designed (synthetic construct, UniProt P14870;P14870 384-579;384-579); assay: as above; conditions: tags: N-terminal 3xFLAG and SV40 NLS (kept in the assay, left out here); copies: 1;1
[10] = biological target: ZIM3 reprogrammed with array DPH1T2F8 (synthetic construct, UniProt Q96PE6 1-166); assay: Zn; HEK293T, RT-qPCR 3 days after transfection
ZIM3 reprogrammed with array DPH1T2F8, sequence (Q96PE6 other isoform, or with tags, fused parts or gaps): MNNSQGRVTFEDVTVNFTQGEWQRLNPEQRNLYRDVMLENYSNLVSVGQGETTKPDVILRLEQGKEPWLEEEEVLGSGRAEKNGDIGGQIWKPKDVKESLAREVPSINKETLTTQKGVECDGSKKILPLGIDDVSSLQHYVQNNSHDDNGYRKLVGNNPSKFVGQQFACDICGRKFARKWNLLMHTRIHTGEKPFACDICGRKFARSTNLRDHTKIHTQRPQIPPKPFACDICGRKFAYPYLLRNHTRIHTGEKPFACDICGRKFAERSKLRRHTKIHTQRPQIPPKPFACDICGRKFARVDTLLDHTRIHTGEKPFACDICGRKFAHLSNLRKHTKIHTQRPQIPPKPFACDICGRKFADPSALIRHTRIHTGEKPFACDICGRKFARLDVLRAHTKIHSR

[11] = biological target: ZIM3 reprogrammed with array UBE4A T1F8 (synthetic construct, UniProt Q96PE6 1-166); assay: Zn; HEK293T, RT-qPCR 3 days after transfection
ZIM3 reprogrammed with array UBE4A T1F8, sequence (Q96PE6 other isoform, or with tags, fused parts or gaps): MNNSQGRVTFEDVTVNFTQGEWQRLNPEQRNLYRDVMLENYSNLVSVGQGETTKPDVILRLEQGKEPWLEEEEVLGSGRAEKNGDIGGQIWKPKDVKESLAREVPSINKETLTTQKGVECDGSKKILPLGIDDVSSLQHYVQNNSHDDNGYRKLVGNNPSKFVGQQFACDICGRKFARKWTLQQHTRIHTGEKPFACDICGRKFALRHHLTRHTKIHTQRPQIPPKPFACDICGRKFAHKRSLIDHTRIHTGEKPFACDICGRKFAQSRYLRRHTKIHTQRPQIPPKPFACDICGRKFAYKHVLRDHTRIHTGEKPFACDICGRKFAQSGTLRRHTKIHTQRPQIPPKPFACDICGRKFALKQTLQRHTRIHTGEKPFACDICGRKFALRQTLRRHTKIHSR

array CDKN1C 125RC = array CDKN1C 125RC (synthetic construct); assay: Zn; HEK293T, RNA-seq; conditions: tags: N-terminal SV40 NLS, C-terminal GS linker + VP64 (left out)
array CDKN1C 125RC (synthetic construct), sequence (chain, as listed by the source): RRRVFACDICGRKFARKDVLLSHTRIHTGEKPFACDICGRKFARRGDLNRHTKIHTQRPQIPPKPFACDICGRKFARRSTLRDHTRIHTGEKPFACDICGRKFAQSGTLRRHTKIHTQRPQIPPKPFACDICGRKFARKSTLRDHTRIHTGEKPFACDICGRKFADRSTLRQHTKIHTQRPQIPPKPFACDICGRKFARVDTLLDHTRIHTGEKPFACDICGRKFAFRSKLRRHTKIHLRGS

[12] = biological target: ZIM3 reprogrammed with array DPH1T2R8 (synthetic construct, UniProt Q96PE6 1-166); assay: Zn; HEK293T, RT-qPCR 3 days after transfection
ZIM3 reprogrammed with array DPH1T2R8, sequence (Q96PE6 other isoform, or with tags, fused parts or gaps): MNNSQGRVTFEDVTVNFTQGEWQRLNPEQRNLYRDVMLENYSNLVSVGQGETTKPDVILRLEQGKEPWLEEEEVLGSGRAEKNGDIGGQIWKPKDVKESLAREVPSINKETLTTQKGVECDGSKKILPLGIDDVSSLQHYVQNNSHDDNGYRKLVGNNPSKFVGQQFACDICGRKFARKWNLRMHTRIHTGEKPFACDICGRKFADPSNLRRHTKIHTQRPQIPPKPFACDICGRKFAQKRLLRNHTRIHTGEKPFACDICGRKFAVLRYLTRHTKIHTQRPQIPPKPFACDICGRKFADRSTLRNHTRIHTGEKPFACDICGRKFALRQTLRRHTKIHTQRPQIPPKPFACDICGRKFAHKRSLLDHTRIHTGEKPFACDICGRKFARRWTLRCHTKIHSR

[13] = biological target: T1, KLF6 reprogrammed with array CDKN1C_200 8Q (synthetic construct, UniProt Q99612 1-199); assay: Zn; HEK293T, RT-qPCR 3 days after transfection; conditions: tags: C-terminal linker + 3xFLAG (left out)
T1 chain: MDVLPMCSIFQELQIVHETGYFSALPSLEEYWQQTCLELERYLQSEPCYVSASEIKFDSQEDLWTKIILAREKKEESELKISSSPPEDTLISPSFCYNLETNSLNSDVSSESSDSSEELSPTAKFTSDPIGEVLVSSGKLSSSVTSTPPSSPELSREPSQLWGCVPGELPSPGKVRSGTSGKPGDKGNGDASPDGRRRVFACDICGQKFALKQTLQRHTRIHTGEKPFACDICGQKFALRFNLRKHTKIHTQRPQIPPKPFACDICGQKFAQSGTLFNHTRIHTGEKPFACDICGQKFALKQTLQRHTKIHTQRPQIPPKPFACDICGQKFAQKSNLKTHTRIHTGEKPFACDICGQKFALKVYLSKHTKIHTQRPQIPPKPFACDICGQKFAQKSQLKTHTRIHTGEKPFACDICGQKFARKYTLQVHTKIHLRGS

[14] = biological target: T2, KLF6 reprogrammed with array CDKN1C_200 F3-8 (synthetic construct, UniProt Q99612 1-199); assay: Zn; HEK293T, RT-qPCR 3 days after transfection
T2 chain: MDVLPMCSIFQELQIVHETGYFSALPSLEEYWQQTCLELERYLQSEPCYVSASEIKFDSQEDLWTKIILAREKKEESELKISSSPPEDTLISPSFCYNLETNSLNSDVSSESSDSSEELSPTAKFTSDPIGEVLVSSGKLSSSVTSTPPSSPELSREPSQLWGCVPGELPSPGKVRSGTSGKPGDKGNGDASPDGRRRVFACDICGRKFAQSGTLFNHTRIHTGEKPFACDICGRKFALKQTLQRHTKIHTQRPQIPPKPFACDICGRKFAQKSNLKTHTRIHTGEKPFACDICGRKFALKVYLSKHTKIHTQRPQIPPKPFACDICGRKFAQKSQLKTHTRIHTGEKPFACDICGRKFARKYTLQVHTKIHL

[15] = biological target: T3, KLF6 reprogrammed with array CDKN1C_200 (synthetic construct, UniProt Q99612 1-199); assay: Zn; HEK293T, RT-qPCR 3 days after transfection
T3 chain: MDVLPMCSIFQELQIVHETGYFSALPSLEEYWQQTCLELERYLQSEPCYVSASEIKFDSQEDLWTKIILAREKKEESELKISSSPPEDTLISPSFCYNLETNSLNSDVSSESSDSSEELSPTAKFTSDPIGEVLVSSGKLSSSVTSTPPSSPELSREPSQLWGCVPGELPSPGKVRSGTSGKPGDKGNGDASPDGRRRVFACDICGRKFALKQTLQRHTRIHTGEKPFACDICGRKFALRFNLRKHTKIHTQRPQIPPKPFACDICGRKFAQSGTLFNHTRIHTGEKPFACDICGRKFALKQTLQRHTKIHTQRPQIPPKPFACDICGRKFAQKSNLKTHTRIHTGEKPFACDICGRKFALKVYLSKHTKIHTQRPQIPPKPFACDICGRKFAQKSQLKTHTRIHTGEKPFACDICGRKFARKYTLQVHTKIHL

[16] = biological target: ZFN pair 12BC_substituted + 12ED_substituted (synthetic construct, UniProt P14870;P14870 384-579;384-579); assay: Zn; U2OS eGFP disruption, 3 days after nucleofection; conditions: tags: N-terminal 3xFLAG and SV40 NLS (kept in the assay, left out here); copies: 1;1
[17] = biological target: T4, ZFN pair 12BC_selected + 12ED_selected (synthetic construct, UniProt P14870;P14870 384-579;384-579); assay: as above; conditions: tags: N-terminal 3xFLAG and SV40 NLS (kept in the assay, left out here); copies: 1;1
T4 chain 1: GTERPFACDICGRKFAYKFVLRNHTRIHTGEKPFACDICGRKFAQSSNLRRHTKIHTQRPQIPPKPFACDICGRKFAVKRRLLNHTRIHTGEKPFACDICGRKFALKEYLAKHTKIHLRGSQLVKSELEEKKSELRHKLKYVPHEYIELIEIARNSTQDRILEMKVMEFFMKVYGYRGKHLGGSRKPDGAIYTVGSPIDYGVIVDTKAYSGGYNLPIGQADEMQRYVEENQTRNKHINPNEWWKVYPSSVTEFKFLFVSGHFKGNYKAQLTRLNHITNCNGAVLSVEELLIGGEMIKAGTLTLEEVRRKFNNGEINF
T4 chain 2: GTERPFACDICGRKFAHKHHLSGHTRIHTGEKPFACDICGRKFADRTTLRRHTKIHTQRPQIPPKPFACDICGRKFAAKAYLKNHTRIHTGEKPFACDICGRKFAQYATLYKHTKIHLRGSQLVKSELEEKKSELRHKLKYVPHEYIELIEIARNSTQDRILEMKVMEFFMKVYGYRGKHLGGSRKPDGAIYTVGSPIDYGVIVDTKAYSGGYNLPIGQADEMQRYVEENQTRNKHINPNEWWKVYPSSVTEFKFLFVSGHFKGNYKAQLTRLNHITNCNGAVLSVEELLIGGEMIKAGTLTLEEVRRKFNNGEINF

[18] = biological target: ZFN pair 12BC_designed + 12ED_designed (synthetic construct, UniProt P14870;P14870 384-579;384-579); assay: as above; conditions: tags: N-terminal 3xFLAG and SV40 NLS (kept in the assay, left out here); copies: 1;1
[19] = biological target: ZFN pair 10BC_designed + 10ED_designed (synthetic construct, UniProt P14870;P14870 384-579;384-579); assay: as above; conditions: tags: N-terminal 3xFLAG and SV40 NLS (kept in the assay, left out here); copies: 1;1
[20] = biological target: ZFN pair 10BC_substituted + 10ED_substituted (synthetic construct, UniProt P14870;P14870 384-579;384-579); assay: as above; conditions: tags: N-terminal 3xFLAG and SV40 NLS (kept in the assay, left out here); copies: 1;1
[21] = biological target: ZFN pair 10BC_selected + 10ED_selected (synthetic construct, UniProt P14870;P14870 384-579;384-579); assay: as above; conditions: tags: N-terminal 3xFLAG and SV40 NLS (kept in the assay, left out here); copies: 1;1

ZIM3 reprogrammed with array DPH1TSSR, sequence (Q96PE6 other isoform, or with tags, fused parts or gaps): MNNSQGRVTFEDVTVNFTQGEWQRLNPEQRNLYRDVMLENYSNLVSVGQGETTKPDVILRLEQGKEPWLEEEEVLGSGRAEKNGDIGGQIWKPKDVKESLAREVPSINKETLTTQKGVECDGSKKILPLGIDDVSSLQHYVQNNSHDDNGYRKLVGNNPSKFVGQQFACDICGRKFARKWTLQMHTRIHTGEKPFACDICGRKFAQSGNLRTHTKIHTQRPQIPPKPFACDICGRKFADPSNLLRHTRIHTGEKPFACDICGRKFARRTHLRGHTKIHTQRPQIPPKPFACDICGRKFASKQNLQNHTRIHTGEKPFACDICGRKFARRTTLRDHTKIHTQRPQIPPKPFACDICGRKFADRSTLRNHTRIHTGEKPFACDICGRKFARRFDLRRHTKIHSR
ZIM3 reprogrammed with array Rab1a T2R8, sequence (Q96PE6 other isoform, or with tags, fused parts or gaps): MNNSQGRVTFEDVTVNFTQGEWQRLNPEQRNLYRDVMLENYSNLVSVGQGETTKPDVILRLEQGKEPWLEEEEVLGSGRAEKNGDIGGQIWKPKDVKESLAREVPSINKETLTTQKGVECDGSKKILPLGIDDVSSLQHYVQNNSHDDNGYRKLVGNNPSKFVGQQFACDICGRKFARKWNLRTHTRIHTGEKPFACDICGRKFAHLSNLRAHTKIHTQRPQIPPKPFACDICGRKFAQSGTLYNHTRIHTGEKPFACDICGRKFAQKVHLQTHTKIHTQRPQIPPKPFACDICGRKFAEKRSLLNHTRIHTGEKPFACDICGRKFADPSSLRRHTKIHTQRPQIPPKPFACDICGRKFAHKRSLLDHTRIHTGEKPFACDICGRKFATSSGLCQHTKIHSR

B1: DPH1TSSR (dsDNA)
DNA 1: CCTGCCTGCGCATGTGGTACTAAAAAGA
DNA 2: TCTTTTTAGTACCACATGCGCAGGCAGG
binding signal [1]: ~0.58 relative expression (lower = more activity, repressor)

B2: Rab1a T2R8 (dsDNA)
DNA 1: CTACTCCGTCCCCTAGAACACAATCAGC
DNA 2: GCTGATTGTGTTCTAGGGGACGGAGTAG
binding signal [2]: ~0.41 relative expression (lower = more activity, repressor)

B3: DPH1_15 (dsDNA)
DNA 1: CCCGGATACGACCAGCGCCGCCATCACC
DNA 2: GGTGATGGCGGCGCTGGTCGTATCCGGG
binding signal [3]: ~0.67 relative expression (lower = more activity, repressor) | binding signal [4]: ~0.13 relative expression (lower = more activity, repressor) | binding signal [5]: ~0.62 relative expression (lower = more activity, repressor) | binding signal [6]: ~0.12 relative expression (lower = more activity, repressor)

B4: UBE4A T1R8 (dsDNA)
DNA 1: TGTCTTACCAGAGCCTGAAGTGCCAGCA
DNA 2: TGCTGGCACTTCAGGCTCTGGTAAGACA
binding signal [7]: ~0.22 relative expression (lower = more activity, repressor)

B5: eGFP site 18 (8 fingers) (dsDNA)
DNA 1: GCAGCACGACTTCTTCAAGTCCGCCATGCCCGAA
DNA 2: TTCGGGCATGGCGGACTTGAAGAAGTCGTGCTGC
binding signal [8]: ~47 % GFP-negative cells (higher = more activity) | binding signal [9]: ~70 % GFP-negative cells (higher = more activity)

B6: DPH1T2F8 (dsDNA)
DNA 1: CTGGTCGTATCCGGGGCAGCGGAGCAGG
DNA 2: CCTGCTCCGCTGCCCCGGATACGACCAG
binding signal [10]: ~0.67 relative expression (lower = more activity, repressor)

B7: UBE4A T1F8 (dsDNA)
DNA 1: GCTGCTGGCACTTCAGGCTCTGGTAAGA
DNA 2: TCTTACCAGAGCCTGAAGTGCCAGCAGC
binding signal [11]: ~0.57 relative expression (lower = more activity, repressor)

B8: CDK125RC (dsDNA)
DNA 1: GCGGCCCGGCCCCCGCGCACCGCCCATTGGC
DNA 2: GCCAATGGGCGGTGCGCGGGGGCCGGGCCGC
binding signal (array CDKN1C 125RC): ~2.2 log2 fold change (RNA-seq) (higher = more activity)

B9: DPH1T2R8 (dsDNA)
DNA 1: CTGCTCCGCTGCCCCGGATACGACCAGC
DNA 2: GCTGGTCGTATCCGGGGCAGCGGAGCAG
binding signal [12]: ~0.77 relative expression (lower = more activity, repressor)

B10: CDKN1C_200 (dsDNA)
DNA 1: TTGAAACTGAAAATACTACATTATGCTA
DNA 2: TAGCATAATGTAGTATTTTCAGTTTCAA
binding signal [13]: ~11 relative expression (higher = more activity) | binding signal [14]: ~3.2 relative expression (higher = more activity) | binding signal [15]: ~17 relative expression (higher = more activity)

B11: eGFP site 12 (8 fingers) (dsDNA)
DNA 1: GAAGTTCATCTGCACCACCGGCAAGCTGCCCGTG
DNA 2: CACGGGCAGCTTGCCGGTGGTGCAGATGAACTTC
binding signal [16]: ~58 % GFP-negative cells (higher = more activity) | binding signal [17]: ~65 % GFP-negative cells (higher = more activity) | binding signal [18]: ~24 % GFP-negative cells (higher = more activity)

B12: eGFP site 10 (8 fingers) (dsDNA)
DNA 1: TACGGCAAGCTGACCCTGAAGTTCATCTGCACCA
DNA 2: TGGTGCAGATGAACTTCAGGGTCAGCTTGCCGTA
binding signal [19]: ~28 % GFP-negative cells (higher = more activity) | binding signal [20]: ~38 % GFP-negative cells (higher = more activity) | binding signal [21]: ~59 % GFP-negative cells (higher = more activity)
